Assay results published in US20170240883A1, “CYCLIC PEPTIDES EXPRESSED BY A GENETIC PACKAGE” (Miti Biosystems GmbH, priority 2014, published 2017).

Biological target: T1, Human Plasma Kallikrein (Homo sapiens, UniProt P03952)
T1 construct: purchased Molecular Innovations, Inc, USA
Experiment: Phage selection of leader-free SynLib1 library modified by Celf ProcM enzyme-leader fusions on biotinylated kallikrein (output titre)
Assay type: binding
Method: Human Plasma Kallikrein (Molecular Innovations, Inc, USA) at 1.15 mg/ml (13 μM) solution in 4 mM acetate, 150 mM NaCl, pH 5.3 was biotinylated using NHS-PEG4-Biotin from the EZ-link micro-PEO4-biotinylation kit (Pierce Biotechnology, USA). 680 μl of water was added to the contents of the pre-weighed vial of biotinylation reagent to make a 5 mM solution. 1 μl of this solution was added to 100 μl of the kallikrein solution. This was incubated at RT for 1 hour prior to the separation of the biotinylated protein from the unreacted biotin, using a 2 ml Spin Desalting column (Pierce Biotechnology, USA). The volume of the kallikrein was made up to 350 μl with PBS (Formedium Ltd, UK) and was loaded onto the spin column which had been equilibrated with PBS (as per the manufacturer's instructions). When this solution had been absorbed into the column matrix, a further 50 μl of PBS was added on top and the column was spun in a centrifuge at 1000 g for 2 min. 395 μl of solution was collected, making the concentration of the biotinylated kallikrein about 3.25 μM.
150 μl of stock leader-free SynLib1 library (4.5e11 phage per μl) was added to 1850 μl of TE buffer, 2 μl 1 M TCEP (Melford Biolaboratories Ltd, UK) and incubated at RT for 20 minutes to reduce the peptides on the phage. 400 μl of 2.5 M NaCl, 20% w/v PEG 8000 was added, incubated at RT for five minutes and the precipitated phages were collected by centrifugation at 15000 g for five minutes. The supernatant was discarded and the phages were resuspended in 150 μl of 25 mM Tris pH 7.5 (Sigma Aldrich, Austria), 1 μM TCEP.
Selections are performed by removing streptavidin-binding clones by pre-exposing the library to streptavidin resin, which is then discarded, mixing the library with decreasing concentrations of biotinylated target for an hour at each round of selection, capture of the biotinylated target and thereby any phage binding the target with magnetic streptavidin resin followed by extensive washing of the resin. Finally, the washed resin has the phage eluted from the target by exposure to a low pH solution, neutralisation of the solution and infection of E. coli by the eluted phage.
Round 1 (R1) of the selection was performed by adding 50 μl of LodeStars streptavidin resin (Agilent Technologies, USA), from which the liquid had been removed by magnetic capture, to the modified phage solution for 30 minutes to capture the peptide sequence that bind to streptavidin (deselection). The resin was captured magnetically and the phage-containing supernatant was collected and made up to 500 μl with 25 mM Tris pH 7.5, 0.05% Tween 20 (Melford Biolaboratories Ltd, UK). Biotinylated kallikrein was added to 100 nM, and mixed at RT for 1 hour prior to processing on a KingFisher mL (Thermo Fisher, Austria) magnetic particle washer. The processing involved the KingFisher transferring 25 μl of streptavidin resin to the phage solution and mixing for five minutes. The resin/phage were then collected and washed in 8×1 ml of PBS+0.05% Tween 20 (PBST). The resin was then mixed in 50 μl of 50 mM glycine pH 2.2 (Melford Biolaboratories Ltd, UK) for five minutes to elute the phage and the resin was removed. The phage-containing supernatant was neutralised with 10 μl of 1 M Tris pH 8.0 and added to 1 ml of TG1 cells at A600 of 0.6 followed by incubation at 37° C., 250 rpm for 1 hour. The phage titre was determination by adding 4 μl of culture to 96 μl of water, which was used to make five, 10-fold dilutions; 10 μl from each of these was spotted onto an LB+tetracycline agar plate. The remainder of the culture was made up to 11 ml with 2TY plus tetracycline and incubated at 37° C., 250 rpm overnight.
10 ml of overnight culture was reduced with 10 μl of 1 M TCEP for 20 min at RT followed by removal of the cells by centrifugation at 15000 g for five minutes. […]

T1 sequence (P03952 20-638): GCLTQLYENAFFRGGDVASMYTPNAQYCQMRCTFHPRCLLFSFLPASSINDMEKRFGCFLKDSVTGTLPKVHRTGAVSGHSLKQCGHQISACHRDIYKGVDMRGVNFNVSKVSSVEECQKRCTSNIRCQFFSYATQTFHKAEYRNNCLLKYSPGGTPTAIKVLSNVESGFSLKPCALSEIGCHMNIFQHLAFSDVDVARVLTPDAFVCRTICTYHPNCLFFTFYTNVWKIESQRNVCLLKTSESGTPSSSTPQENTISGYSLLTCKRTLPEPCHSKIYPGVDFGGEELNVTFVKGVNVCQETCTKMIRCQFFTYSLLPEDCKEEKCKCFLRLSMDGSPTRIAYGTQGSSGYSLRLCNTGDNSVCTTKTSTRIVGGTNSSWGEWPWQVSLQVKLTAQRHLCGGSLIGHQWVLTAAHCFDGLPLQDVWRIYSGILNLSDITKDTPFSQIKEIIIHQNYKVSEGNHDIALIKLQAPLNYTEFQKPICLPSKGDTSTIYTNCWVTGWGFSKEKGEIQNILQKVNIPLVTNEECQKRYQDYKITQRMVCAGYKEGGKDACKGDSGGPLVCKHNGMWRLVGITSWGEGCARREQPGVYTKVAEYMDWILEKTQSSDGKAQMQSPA

B1: CelfProcM10: C-terminal leaderA4.3 ProcM enzyme-leader fusion, 10-pair linker, used to modify leader-free SynLib1 (protein)
chain: MSEEQLKAFIAKVQADTSLQEQLKAEGADVVAIAKAAGFTITTEDLNSHRQNLTDDELEGVAGGSASGSGSGSAMESPSSWKTSWLAAIAPDEPHKFDRRLEWDELSEENFFAALNSEPASLEEDDPCFEEALQDALEALKAAWDLPLLPVDNNLNRPFVDVWWPIRCHSAESLRQSFVSDSAGLADEIFDQLADSLLDRLCALGDQVLWEAFNKERTPGTMLLAHLGAAGDGSGPPVREHYERFIQSHRRNGLAPLLKEFPVLGRLIGTVLSLWFQGSVEMLQRICADRTVLQQCFAIPCGHHLKTVKQGLSDPHRGGRAVAVLEFADPNSTANSSMHVVYKPKDMAVDAAYQATLADLNTHSDLSPLRTLAIHNGNGYGYMEHVVHHLCANDKELTNFYFNAGRLTALLHLLGCTDCHHENLIACGDQLLLIDTETLLEADLPDHISDASSTTAQPKPSSLQKQFQRSVLRSGLLPQWMFLGESKLAIDISALGMSPPNKPERIALGWLGFNSDGMMPGRVSQPVEIPTSLPVGIGEVNPFDRFLEDFCDGFSMQSEALIKLRNRWLDVNGVLAHFAGLPRRIVLRATRVYFTIQRQQLEPTALRSPLAQALKLEQLTRSFLLAESKPLHWPIFAAEVKQMQHLDIPFFTHLIDADALQLGGLEQELPGFIQTSGLAAAYERLRNLDTDEIAFQLRLIRGAVEARELHTTPESSPTLPPPATPEALMSSSAETSLEAAKRIAHRLLELAIRDSQGQVEWLGMDLGADGESFSFGPVGLSLYGGSIGIAHLLQRLQAQQVSLMDADAIQTAILQPLVGLVDQPSDDGRRRWWRDQPLGLSGCGGTLLALTLQGEQAMANSLLAAALPRFIEADQQLDLIGGCAGLIGSLVQLGTESALQLALRAGDHLIAQQNEEGAWSSSSSQPGLLGFSHGTAGYAAALAHLHAFSADERYRTAAAAALAYERARFNKDAGNWPDYRSIGRDSDSDEPSFMASWCHGAPGIALGRACLWGTALWDEECTKEIGIGLQTTAAVSSVSTDHLCCGSLGLMVLLEMLSAGPWPIDNQLRSHCQDVAFQYRLQALQRCSAEPIKLRCFGTKEGLLVLPGFFTGLSGMGLALLEDDPSRAVVSQLISAGLWPTESASGSGSGSGSTSGSGSGSAMSEEQLKAFIAKVQADTSLQEQLKAEGADVVAIAKAAGFTITTEDLNSHRQNLTDDELEGVAGG
modifications: Enzyme-Leader-Fusion
output titre (number of phages eluted at the end of the round) (R1, 100 nM kallikrein): 4.2e6 | output titre (number of phages eluted at the end of the round) (R2, 33 nM kallikrein): 2.9e5 | difference in titre using 9.75 nM kallikrein and using 0 nM kallikrein (R3): 6.5 fold | output titre (number of phages eluted at the end of the round) (R3, 0 nM kallikrein): 5.3e4 | output titre (number of phages eluted at the end of the round) (R3, 9.75 nM kallikrein): 3.4e5
